These results are taken from patent US20230167501.

This data set addresses T1, PEG10 gag.
T1 chain: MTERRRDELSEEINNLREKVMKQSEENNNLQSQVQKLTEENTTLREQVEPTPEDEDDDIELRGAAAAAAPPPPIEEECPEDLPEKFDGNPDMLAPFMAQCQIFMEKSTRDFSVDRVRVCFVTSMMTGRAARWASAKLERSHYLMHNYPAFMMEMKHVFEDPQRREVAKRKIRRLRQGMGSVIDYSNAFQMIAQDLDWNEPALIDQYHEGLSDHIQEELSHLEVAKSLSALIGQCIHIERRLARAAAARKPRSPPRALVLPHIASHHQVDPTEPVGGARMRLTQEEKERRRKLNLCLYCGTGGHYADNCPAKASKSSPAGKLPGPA

B1: PEG10 gag-pol (protein)
chain: MTERRRDELSEEINNLREKVMKQSEENNNLQSQVQKLTEENTTLREQVEPTPEDEDDDIELRGAAAAAAPPPPIEEECPEDLPEKFDGNPDMLAPFMAQCQIFMEKSTRDFSVDRVRVCFVTSMMTGRAARWASAKLERSHYLMHNYPAFMMEMKHVFEDPQRREVAKRKIRRLRQGMGSVIDYSNAFQMIAQDLDWNEPALIDQYHEGLSDHIQEELSHLEVAKSLSALIGQCIHIERRLARAAAARKPRSPPRALVLPHIASHHQVDPTEPVGGARMRLTQEEKERRRKLNLCLYCGTGGHYADNCPAKASKSSPAGKLPGPAVEGPSATGPEIIRSPQDDASSPHLQVMLQIHLPGRHTLFVRAMIDSGASGNFIDHEYVAQNGIPLRIKDWPILVEAIDGRPIASGPVVHETHDLIVDLGDHREVLSFDVTQSPFFPVVLGVRWLSTHDPNITWSTRSIVFDSEYCRYHCRMYSPIPPSLPPPAPQPPLYYPVDGYRVYQPVRYYYVQNVYTPVDEHVYPDHRLVDPHIEMIPGAHSIPSGHVYSLSEPEMAALRDFVARNVKDGLITPTIAPNGAQVLQVKRGWKLQVSYDCRAPNNFTIQNQYPRLSIPNLEDQAHLATYTEFVPQIPGYQTYPTYAAYPTYPVGFAWYPVGRDGQGRSLYVPVMITWNPHWYRQPPVPQYPPPQPPPPPPPPPPPPSYSTL
Consider B1, for which the “presence of HA-tagged cleavage products by western blot after co-transfection” value is listed as “PEG10 gag-pol was capable of cleaving PEG10 gag in trans”.
